The results in this text go back to patent US20050244448A1.

In the test the target is total elastase activity of relaxin-stimulated cultured SUI vaginal fibroblasts. Kind of test: cell-based or functional assay.

For “alpha-1 antitrypsin (from UniProt P01009 25-418)”, the inhibition of total elastase activity stood at 98%.
